Biological target: amyloid β (UniProt P05067)
Chain of UniProt P05067 (P05067 whole entry, looked up): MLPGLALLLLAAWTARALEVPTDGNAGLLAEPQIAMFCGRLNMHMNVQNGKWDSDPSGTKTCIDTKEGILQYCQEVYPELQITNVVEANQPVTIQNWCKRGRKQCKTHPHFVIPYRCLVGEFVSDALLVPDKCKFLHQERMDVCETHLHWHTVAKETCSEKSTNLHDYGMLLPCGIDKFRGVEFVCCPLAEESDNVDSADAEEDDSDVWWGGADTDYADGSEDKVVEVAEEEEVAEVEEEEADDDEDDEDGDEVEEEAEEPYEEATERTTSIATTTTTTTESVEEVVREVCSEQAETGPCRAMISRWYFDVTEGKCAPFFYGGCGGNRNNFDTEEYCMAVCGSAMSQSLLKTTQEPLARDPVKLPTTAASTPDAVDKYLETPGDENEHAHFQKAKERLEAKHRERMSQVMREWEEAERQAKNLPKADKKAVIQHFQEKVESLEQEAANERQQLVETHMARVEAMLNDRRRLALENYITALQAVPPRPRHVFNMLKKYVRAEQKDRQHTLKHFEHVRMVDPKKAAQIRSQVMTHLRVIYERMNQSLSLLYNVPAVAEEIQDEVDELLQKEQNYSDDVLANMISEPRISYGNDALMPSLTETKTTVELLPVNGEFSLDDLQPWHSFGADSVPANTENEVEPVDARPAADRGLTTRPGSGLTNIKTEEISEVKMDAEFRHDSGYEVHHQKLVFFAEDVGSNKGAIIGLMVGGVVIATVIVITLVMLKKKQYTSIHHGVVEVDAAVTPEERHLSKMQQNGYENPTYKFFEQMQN

Row | Substance | protease activity; amount of amyloid β by Western blot (4G8) | activity to degrade amyloid β (Western blot)
1 | TuMV-derived NIa protease | amyloid β disappeared after treatment with NIa and its fragment for 1 hour | –
2 | NIaΔ20 (20 amino acids removed from the C-terminus) | – | showed activity similar to normal NIa
3 | NIaΔ24 (24 amino acids removed from the C-terminus) | – | showed activity similar to normal NIa
4 | NIaΔ28 (28 amino acids removed from the C-terminus) | – | showed significantly reduced activity
